The source of these data is paper PMC11969024 (2025).

B1: peptide HD2 (from tick evasin EVA4) / CXCL11 (biotinylated, synthetic) (parent complex)
chain 1: EEDDYTAYAPLTCYFT
chain 2: FPMFKRGRCLCIGPGVKAVKVADIEKASIMYPSNNCDKIEVIITLKENKGQRCLNPKSKQARLIIKKVERKNF

The variants in the test derive from B1.
Take chain 1 EEDDYTAVAPLTCYFT [chain 1 Y8V]: the enrichment is -0.599 log2 (difference from the parental peptide). In the case of chain 1 EEDDYTAMAPLTCYFT [chain 1 Y8M] it was -5.63 log2 (difference from the parental peptide); in that of chain 1 EEDDYTAHAPLTCYFT [chain 1 Y8H], -4.71 log2 (difference from the parental peptide); in that of chain 1 EEDDYTADAPLTCYFT [chain 1 Y8D], -3.68 log2 (difference from the parental peptide). Consider chain 1 EEDDYTAIAPLTCYFT [chain 1 Y8I], for which the enrichment is -0.997 log2 (difference from the parental peptide). In the case of chain 1 EEDDYTAYLPLTCYFT [chain 1 A9L] it was -2.33 log2 (difference from the parental peptide); in that of chain 1 EEDDYTAYWPLTCYFT [chain 1 A9W], 5.42 log2 (difference from the parental peptide); in that of chain 1 EEDDYTAYEPLTCYFT [chain 1 A9E], 2.26 log2 (difference from the parental peptide). In the case of chain 1 EEDDYTAYIPLTCYFT [chain 1 A9I] it was -4.81 log2 (difference from the parental peptide). In the case of chain 1 EEDDYTAYQPLTCYFT [chain 1 A9Q] it was 0.165 log2 (difference from the parental peptide); in that of chain 1 EEDDYTAYVPLTCYFT [chain 1 A9V], -2.18 log2 (difference from the parental peptide); in that of chain 1 EEDDYTAYMPLTCYFT [chain 1 A9M], -0.281 log2 (difference from the parental peptide). Turning to chain 1 EEDDYTAYHPLTCYFT [chain 1 A9H], the enrichment is -5.35 log2 (difference from the parental peptide). With chain 1 EEDDYTAYTPLTCYFT [chain 1 A9T] the figure was 1.25 log2 (difference from the parental peptide); with chain 1 EEDDYTAYNPLTCYFT [chain 1 A9N], -2.99 log2 (difference from the parental peptide). Turning to chain 1 EEDDYTSYAPLTCYFT [chain 1 A7S], the enrichment is 0.213 log2 (difference from the parental peptide). With chain 1 EEDDYTPYAPLTCYFT [chain 1 A7P] the figure was 0.432 log2 (difference from the parental peptide).

With chain 1 EEDDYTQYAPLTCYFT [chain 1 A7Q], the enrichment was 3.76 log2 (difference from the parental peptide).

chain 1 EEDDYTGYAPLTCYFT [chain 1 A7G]: the enrichment is -3.03 log2 (difference from the parental peptide). For the variant chain 1 EEDDYTTYAPLTCYFT [chain 1 A7T], the enrichment was -0.798 log2 (difference from the parental peptide). As for chain 1 EEDDYTHYAPLTCYFT [chain 1 A7H], the enrichment is -1.06 log2 (difference from the parental peptide). chain 1 EEDDYTDYAPLTCYFT [chain 1 A7D]: the enrichment is 2.88 log2 (difference from the parental peptide). In the case of chain 1 EEDDYTRYAPLTCYFT [chain 1 A7R] it was -1.89 log2 (difference from the parental peptide); in that of chain 1 EEDDYTKYAPLTCYFT [chain 1 A7K], -3.04 log2 (difference from the parental peptide). With chain 1 EEDDYTFYAPLTCYFT [chain 1 A7F] the figure was 1.43 log2 (difference from the parental peptide); with chain 1 EEDDYTVYAPLTCYFT [chain 1 A7V], 0.52 log2 (difference from the parental peptide).

On to chain 1 EKDDYTAYAPLTCYFT [chain 1 E2K], for which the enrichment is -2.28 log2 (difference from the parental peptide).

Take chain 1 EHDDYTAYAPLTCYFT [chain 1 E2H]: the enrichment was -4.78 log2 (difference from the parental peptide). With chain 1 ESDDYTAYAPLTCYFT [chain 1 E2S] the figure was -2.62 log2 (difference from the parental peptide); with chain 1 EEDDYTAYAPLTCVFT [chain 1 Y14V], -5.26 log2 (difference from the parental peptide); with chain 1 EEDDYTAYAPLTCCFT [chain 1 Y14C], -3.13 log2 (difference from the parental peptide).

As to chain 1 EEDDYTAYAPLTCGFT [chain 1 Y14G], the enrichment was -6.05 log2 (difference from the parental peptide).

In the case of chain 1 EEDDYTAYAPLTCHFT [chain 1 Y14H], the enrichment was -2.54 log2 (difference from the parental peptide). With chain 1 EEDDYTAYAPLTCFFT [chain 1 Y14F], the enrichment is 0.796 log2 (difference from the parental peptide).

Take chain 1 EEDDYTAYAPWTCYFT [chain 1 L11W]: the enrichment is 4.79 log2 (difference from the parental peptide). In the case of chain 1 EEDDYTAYAPSTCYFT [chain 1 L11S] it was -0.706 log2 (difference from the parental peptide).

For chain 1 EEDDYTAYAPDTCYFT [chain 1 L11D], the enrichment is -5.22 log2 (difference from the parental peptide). In the case of chain 1 EEDDYTAYAPRTCYFT [chain 1 L11R] it was -3.19 log2 (difference from the parental peptide); in that of chain 1 EEDDYTAYAPMTCYFT [chain 1 L11M], 2.73 log2 (difference from the parental peptide); in that of chain 1 EEDDYTAYAPHTCYFT [chain 1 L11H], 0.15 log2 (difference from the parental peptide).

chain 1 EEDDYTAYAPPTCYFT [chain 1 L11P]: the enrichment is -5.24 log2 (difference from the parental peptide).

With chain 1 EEDDYTAYAPATCYFT [chain 1 L11A], the enrichment is -1.47 log2 (difference from the parental peptide). With chain 1 EEDDYTAYAPLTCYFV [chain 1 T16V], the enrichment was -2.73 log2 (difference from the parental peptide). Turning to chain 1 EEDDYTAYAPLTCYFS [chain 1 T16S], the enrichment is 0.254 log2 (difference from the parental peptide).

For chain 1 EEDDYTAYAPLTCYFE [chain 1 T16E], the enrichment was 1.12 log2 (difference from the parental peptide).

As for chain 1 EEDDYTAYAPLTCYFQ [chain 1 T16Q], the enrichment was -2.38 log2 (difference from the parental peptide). In the case of chain 1 EEDDYTAYAPLTCYFI [chain 1 T16I] it was 0.577 log2 (difference from the parental peptide). Consider chain 1 EEDDYTAYAPLTCYFF [chain 1 T16F], for which the enrichment was -2.01 log2 (difference from the parental peptide). For the variant chain 1 EEDDYTAYAPLTCYFC [chain 1 T16C], the enrichment was 2.71 log2 (difference from the parental peptide). With chain 1 EEDDYTAYAELTCYFT [chain 1 P10E] the figure was -3.45 log2 (difference from the parental peptide).

With chain 1 EEDDYTAYAILTCYFT [chain 1 P10I], the enrichment was -0.366 log2 (difference from the parental peptide). With chain 1 EEDDYTAYASLTCYFT [chain 1 P10S] the figure was -1.81 log2 (difference from the parental peptide); with chain 1 EEDDYTAYAHLTCYFT [chain 1 P10H], -5.09 log2 (difference from the parental peptide); with chain 1 EEDDYTAYAWLTCYFT [chain 1 P10W], 0.743 log2 (difference from the parental peptide). With chain 1 EEDDYTAYAVLTCYFT [chain 1 P10V] the figure was -5.93 log2 (difference from the parental peptide). In the case of chain 1 EEDDYTAYADLTCYFT [chain 1 P10D] it was 8.22 log2 (difference from the parental peptide); in that of chain 1 EEDDYTAYALLTCYFT [chain 1 P10L], -1.17 log2 (difference from the parental peptide); in that of chain 1 EEDDYTAYANLTCYFT [chain 1 P10N], 1.47 log2 (difference from the parental peptide). On to chain 1 EEDDYTAYAMLTCYFT [chain 1 P10M], for which the enrichment was -4.64 log2 (difference from the parental peptide). In the case of chain 1 EEWDYTAYAPLTCYFT [chain 1 D3W] it was 0.263 log2 (difference from the parental peptide); in that of chain 1 EETDYTAYAPLTCYFT [chain 1 D3T], -3.75 log2 (difference from the parental peptide); in that of chain 1 EEYDYTAYAPLTCYFT [chain 1 D3Y], -1.43 log2 (difference from the parental peptide). Consider chain 1 EEFDYTAYAPLTCYFT [chain 1 D3F], for which the enrichment is -3.31 log2 (difference from the parental peptide).

Take chain 1 EEDSYTAYAPLTCYFT [chain 1 D4S]: the enrichment is -5.73 log2 (difference from the parental peptide). In the case of chain 1 EEDFYTAYAPLTCYFT [chain 1 D4F] it was -5.51 log2 (difference from the parental peptide); in that of chain 1 EEDVYTAYAPLTCYFT [chain 1 D4V], -6.99 log2 (difference from the parental peptide). With chain 1 EEDLYTAYAPLTCYFT [chain 1 D4L] the figure was -4.01 log2 (difference from the parental peptide); with chain 1 EEDPYTAYAPLTCYFT [chain 1 D4P], 0.748 log2 (difference from the parental peptide); with chain 1 EEDIYTAYAPLTCYFT [chain 1 D4I], -4.93 log2 (difference from the parental peptide). In the case of chain 1 EEDDYTAYAPLSCYFT [chain 1 T12S] it was -1.85 log2 (difference from the parental peptide); in that of chain 1 EEDDYTAYAPLDCYFT [chain 1 T12D], -5.79 log2 (difference from the parental peptide). For the variant chain 1 EEDDYTAYAPLMCYFT [chain 1 T12M], the enrichment is 0.317 log2 (difference from the parental peptide). In the case of chain 1 EEDDYTAYAPLACYFT [chain 1 T12A] it was -4.34 log2 (difference from the parental peptide); in that of chain 1 EEDDYTAYAPLYCYFT [chain 1 T12Y], 1.35 log2 (difference from the parental peptide); in that of chain 1 EEDDYTAYAPLHCYFT [chain 1 T12H], -2.7 log2 (difference from the parental peptide). With chain 1 EEDDYTAYAPLICYFT [chain 1 T12I] the figure was 0.0621 log2 (difference from the parental peptide); with chain 1 EEDDYTAYAPLRCYFT [chain 1 T12R], -6.22 log2 (difference from the parental peptide).

Turning to chain 1 EEDDYTAYAPLWCYFT [chain 1 T12W], the enrichment is 0.223 log2 (difference from the parental peptide).

In the case of chain 1 EEDDYTAYAPLVCYFT [chain 1 T12V], the enrichment was 1.82 log2 (difference from the parental peptide). With chain 1 EEDDFTAYAPLTCYFT [chain 1 Y5F] the figure was -0.5 log2 (difference from the parental peptide). In the case of chain 1 IEDDYTAYAPLTCYFT [chain 1 E1I] it was 0.804 log2 (difference from the parental peptide); in that of chain 1 DEDDYTAYAPLTCYFT [chain 1 E1D], 1.33 log2 (difference from the parental peptide).

With chain 1 VEDDYTAYAPLTCYFT [chain 1 E1V], the enrichment is -6.09 log2 (difference from the parental peptide). Take chain 1 LEDDYTAYAPLTCYFT [chain 1 E1L]: the enrichment was -0.107 log2 (difference from the parental peptide). With chain 1 AEDDYTAYAPLTCYFT [chain 1 E1A] the figure was 0.823 log2 (difference from the parental peptide). As to chain 1 EEDDYTAYAPLTQYFT [chain 1 C13Q], the enrichment was -4.93 log2 (difference from the parental peptide). Regarding chain 1 EEDDYTAYAPLTMYFT [chain 1 C13M], the enrichment was -6.65 log2 (difference from the parental peptide). Consider chain 1 EEDDYTAYAPLTAYFT [chain 1 C13A], for which the enrichment was -5.18 log2 (difference from the parental peptide).

With chain 1 EEDDYTAYAPLTEYFT [chain 1 C13E], the enrichment was -5.07 log2 (difference from the parental peptide). In the case of chain 1 EEDDYTAYAPLTCYVT [chain 1 F15V] it was -0.608 log2 (difference from the parental peptide). With chain 1 EEDDYTAYAPLTCYRT [chain 1 F15R] the figure was -4.18 log2 (difference from the parental peptide); with chain 1 EEDDYTAYAPLTCYET [chain 1 F15E], -6.06 log2 (difference from the parental peptide); with chain 1 EEDDYTAYAPLTCYAT [chain 1 F15A], -3.02 log2 (difference from the parental peptide).

Consider chain 1 EEDDYTAYAPLTCYYT [chain 1 F15Y], for which the enrichment is 0.592 log2 (difference from the parental peptide). With chain 1 EEDDYTAYAPLTCYHT [chain 1 F15H] the figure was -2.86 log2 (difference from the parental peptide); with chain 1 EEDDYTAYAPLTCYQT [chain 1 F15Q], -2.96 log2 (difference from the parental peptide). With chain 1 EEDDYTAYAPLTCYLT [chain 1 F15L] the figure was -2.87 log2 (difference from the parental peptide).

Consider chain 1 EEDDYTAYAPLTCYST [chain 1 F15S], for which the enrichment is -1.86 log2 (difference from the parental peptide). In the case of chain 1 EEDDYTAYAPLTCYGT [chain 1 F15G] it was -4.79 log2 (difference from the parental peptide).

For chain 1 EEDDYTAYAPLTCYCT [chain 1 F15C], the enrichment was 0.343 log2 (difference from the parental peptide). With chain 1 EEDDYWAYAPLTCYFT [chain 1 T6W] the figure was 9.7 log2 (difference from the parental peptide); with chain 1 EEDDYCAYAPLTCYFT [chain 1 T6C], -5.45 log2 (difference from the parental peptide); with chain 1 EEDDYGAYAPLTCYFT [chain 1 T6G], 4.62 log2 (difference from the parental peptide).

With chain 1 EEDDYMAYAPLTCYFT [chain 1 T6M], the enrichment was 1.9 log2 (difference from the parental peptide). In the case of chain 1 EEDDYNAYAPLTCYFT [chain 1 T6N] it was 1.03 log2 (difference from the parental peptide); in that of chain 1 EEDDYPAYAPLTCYFT [chain 1 T6P], 1.34 log2 (difference from the parental peptide). With chain 1 EEDDYAAYAPLTCYFT [chain 1 T6A] the figure was 1.82 log2 (difference from the parental peptide); with chain 1 EEDDYQAYAPLTCYFT [chain 1 T6Q], -2.01 log2 (difference from the parental peptide); with chain 1 EEDDYDAYAPLTCYFT [chain 1 T6D], 3.67 log2 (difference from the parental peptide). With chain 1 EEDDYKAYAPLTCYFT [chain 1 T6K] the figure was 0.156 log2 (difference from the parental peptide); with chain 1 EEDDYYAYAPLTCYFT [chain 1 T6Y], 3.68 log2 (difference from the parental peptide); with chain 1 EEDDYFAYAPLTCYFT [chain 1 T6F], 4.5 log2 (difference from the parental peptide).
